# Assays:
# Type I collagen [1] = biological target: T1, Type I collagen (Rattus norvegicus, UniProt P02454;P02466 P02454:152-1207,P02466:86-1125); assay: maximum binding at 12.27% mass fraction ssDNA; SYBR Safe depletion assay, deionized water, RT; settings: tags: rat tail tendon, Corning; chain copies: 2,1
# Type I collagen [2] = biological target: T1, Type I collagen; assay: maximum binding at 23.16% mass fraction ssDNA; SYBR Safe depletion assay, deionized water, RT; settings: tags: rat tail tendon, Corning; chain copies: 2,1
# Type I collagen [3] = biological target: T1, Type I collagen; assay: fiber formation, same as VEGF-R2 aptamer; settings: tags: rat tail tendon, Corning; chain copies: 2,1
# Excerpt: (§1) A VEGF-R2 targeting aptamer sequence was used in both a monovalent (single sequence) and divalent form (two single sequences tethered by a (PEG)6 linker). For all studies, we used a random sequence ssDNA of the same length and GC content as a control to determine the effect of the targeting and functionality of the DNA aptamer as compared to the effect of purely ssDNA, respectively.32 The VEGF-R2 targeting aptamer monovalent sequence is: ‘5-GATGTGAGTGTGTGACGAGCTACGACGTCTGGTGTAATTTATAAAGACACTGTGTATATCAACAACAGAACAAGGAAAGG-3’ (SEQ ID NO:14) .The random ssDNA oligomer monovalent sequence is: ‘5-TAATGAGAAGTATGTGTAGAGTCAATGAGATACGCAATTGGGAAGACAAGAGTATTGACTCGGACTGAGTACAATCGTCC-3’ (SEQ ID NO:15). […]
# (§2) Fiber morphology for the different volume fractions of type I collagen and DNA aptamer was qualitatively assessed by phase and fluorescence microscopy using immobilized fibers. For fluorescence microscopy, immobilized fibers were stained with SYBR Safe DNA stain (Invitrogen) diluted at a 1:10,000 volume ratio in deionized water. […] To quantify surface coverage, full well images were taken with a Keyence BZ-X700 fluorescence microscope.
# Type I collagen [4] = biological target: T1, Type I collagen; assay: maximum binding at 29.32% mass fraction ssDNA; SYBR Safe depletion assay, deionized water, RT; settings: tags: rat tail tendon, Corning; chain copies: 2,1
# Type I collagen [5] = biological target: T1, Type I collagen; assay: maximum binding at 17.83% mass fraction ssDNA; SYBR Safe depletion assay, deionized water, RT; settings: tags: rat tail tendon, Corning; chain copies: 2,1
# Type I collagen [6] = biological target: T1, Type I collagen; assay: percent DNA bound rises with collagen; SYBR Safe depletion after centrifugation; fibers at 10-30% vol collagen; settings: tags: rat tail tendon, Corning; chain copies: 2,1; hairpins predicted
# Method: In 96 well plate, mixtures of scrambled aptamer (1 μM) were mixed with rat tail type I collagen (0.3 mg/mL). Mixtures were at 25% increments from 0% to 100% volume fraction collagen with 1 replicate. Solutions were incubated at room temperature for 2 hours and then SYBR Safe DNA stain was added in a 2:1 ratio to the aptamer-collagen solutions and incubated for 30 minutes in the dark at room temperature. The solutions were centrifuged at 2000 g for 5 minutes and the supernatant was added to a 96 well plate giving 2 repeats per solution. Fluorescent intensity was measured by exciting at 488 nm and reading emission at 520 nm.
# Type I collagen [7] = biological target: T1, Type I collagen; assay: binding capacity identical to HAP aptamer; fibers form above about 5 pmol ssDNA/ug collagen; settings: tags: rat tail tendon, Corning; chain copies: 2,1
# Method: (§3) Complexes spontaneously formed upon mixing and were incubated at room temperature overnight followed by storage in solution at 4° C. until needed.
# (§4) The amount of ssDNA in the DNA aptamer-collagen complex self-assembled fibers for different volume fractions of type I collagen and ssDNA oligomer was assessed fluorometrically by measuring the intensity of a fluorescent DNA stain. Solutions of different volume fractions were diluted at a 1:2 volume ratio of fiber solution to SYBR Safe DNA stain (Invitrogen). The stain concentrate was diluted first at a 1:10,000 volume ratio in deionized water. Then the mixtures were incubated protected from light for 30 minutes at room-temperature. After incubation, the mixtures were centrifuged at 2000 g for five minutes. Supernatant was plated in duplicate into black walled 96 well microplates and fluorescence intensity was measured by exciting at 488 nm and detecting at 520 nm using a UV-Vis Synergy H1 plate reader (BioTek). ssDNA in the supernatant was quantified using a standard curve fit with a 4-parameter logistic regression to correlate fluorescent intensity to ssDNA concentration. Individual standard curves were prepared for each ssDNA to account for any differences in DNA stain interaction with the two ssDNA sequences due to their secondary structure.
# Type I collagen [8] = biological target: T1, Type I collagen; assay: binding capacity identical to random ssDNA; fibers form above about 5 pmol ssDNA/ug collagen; settings: tags: rat tail tendon, Corning; chain copies: 2,1
# Method: as §3, §4
# Type I collagen [9] = biological target: T1, Type I collagen; assay: fiber formation by microscopy, deionized water; settings: tags: rat tail tendon, Corning; chain copies: 2,1
# Type I collagen [10] = biological target: T1, Type I collagen; assay: fiber formation, same as random sequence; none above 50% vol collagen; settings: tags: rat tail tendon, Corning; chain copies: 2,1
# Excerpt: as §1, §2
# T1 sequence (P02454 152-1207, chain 1 of 2): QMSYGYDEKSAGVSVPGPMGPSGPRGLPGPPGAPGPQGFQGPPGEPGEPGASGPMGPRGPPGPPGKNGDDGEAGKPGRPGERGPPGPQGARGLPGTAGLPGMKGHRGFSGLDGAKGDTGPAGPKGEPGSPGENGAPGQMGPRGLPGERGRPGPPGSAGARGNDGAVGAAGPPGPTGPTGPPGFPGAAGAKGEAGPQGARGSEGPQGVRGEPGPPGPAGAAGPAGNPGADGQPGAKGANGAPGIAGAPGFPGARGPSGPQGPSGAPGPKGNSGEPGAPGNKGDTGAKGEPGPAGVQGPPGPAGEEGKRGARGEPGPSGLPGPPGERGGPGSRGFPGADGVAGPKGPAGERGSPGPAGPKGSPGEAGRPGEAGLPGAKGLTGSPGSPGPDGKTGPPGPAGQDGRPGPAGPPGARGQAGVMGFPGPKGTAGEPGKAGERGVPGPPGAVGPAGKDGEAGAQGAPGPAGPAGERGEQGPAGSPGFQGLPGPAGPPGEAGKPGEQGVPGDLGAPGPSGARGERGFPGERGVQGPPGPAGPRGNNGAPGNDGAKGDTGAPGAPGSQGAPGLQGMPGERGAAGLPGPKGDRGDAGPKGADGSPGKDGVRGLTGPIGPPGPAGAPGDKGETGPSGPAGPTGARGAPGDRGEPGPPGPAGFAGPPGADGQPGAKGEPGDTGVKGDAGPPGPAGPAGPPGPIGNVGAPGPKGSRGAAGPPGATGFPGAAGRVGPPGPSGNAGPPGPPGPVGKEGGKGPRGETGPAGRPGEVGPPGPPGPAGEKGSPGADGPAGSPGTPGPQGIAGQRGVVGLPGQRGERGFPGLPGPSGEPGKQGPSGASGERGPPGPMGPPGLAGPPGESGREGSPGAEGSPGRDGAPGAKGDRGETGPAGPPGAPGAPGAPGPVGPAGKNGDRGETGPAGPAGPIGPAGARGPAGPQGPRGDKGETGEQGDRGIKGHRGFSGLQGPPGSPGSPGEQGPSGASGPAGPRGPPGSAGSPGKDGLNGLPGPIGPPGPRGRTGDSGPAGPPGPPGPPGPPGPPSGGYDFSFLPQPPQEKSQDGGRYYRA
# T1 sequence (P02466 86-1125, chain 2 of 2): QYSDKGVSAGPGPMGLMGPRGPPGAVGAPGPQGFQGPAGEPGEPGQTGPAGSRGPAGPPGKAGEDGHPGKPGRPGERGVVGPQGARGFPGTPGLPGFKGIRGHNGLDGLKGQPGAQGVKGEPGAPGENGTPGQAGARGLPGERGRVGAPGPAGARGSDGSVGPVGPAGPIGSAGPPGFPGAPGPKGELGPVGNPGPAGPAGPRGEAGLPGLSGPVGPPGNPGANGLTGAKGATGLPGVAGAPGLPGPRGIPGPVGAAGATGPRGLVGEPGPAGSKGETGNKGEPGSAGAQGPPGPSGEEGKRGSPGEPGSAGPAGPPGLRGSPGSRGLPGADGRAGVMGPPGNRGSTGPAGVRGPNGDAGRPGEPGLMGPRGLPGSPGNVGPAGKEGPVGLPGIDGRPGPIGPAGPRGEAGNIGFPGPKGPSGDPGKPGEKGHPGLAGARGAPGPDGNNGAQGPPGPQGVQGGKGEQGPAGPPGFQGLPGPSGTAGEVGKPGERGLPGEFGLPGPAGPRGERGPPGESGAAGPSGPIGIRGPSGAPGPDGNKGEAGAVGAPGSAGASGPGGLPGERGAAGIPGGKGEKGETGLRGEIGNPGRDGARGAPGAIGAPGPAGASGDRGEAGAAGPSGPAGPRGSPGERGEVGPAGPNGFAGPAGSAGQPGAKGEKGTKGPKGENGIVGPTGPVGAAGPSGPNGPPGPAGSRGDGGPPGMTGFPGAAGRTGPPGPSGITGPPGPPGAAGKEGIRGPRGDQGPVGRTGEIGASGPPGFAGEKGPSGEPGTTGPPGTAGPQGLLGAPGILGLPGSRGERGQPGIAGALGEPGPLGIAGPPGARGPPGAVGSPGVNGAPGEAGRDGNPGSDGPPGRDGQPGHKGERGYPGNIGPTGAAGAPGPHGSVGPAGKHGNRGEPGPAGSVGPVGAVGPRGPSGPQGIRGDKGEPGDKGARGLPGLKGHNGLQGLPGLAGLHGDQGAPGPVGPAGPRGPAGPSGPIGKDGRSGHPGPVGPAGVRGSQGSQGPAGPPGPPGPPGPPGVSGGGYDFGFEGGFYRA
binder,measurement,setting,value
GGAGCTGTTGGCGTA (ssDNA) [random 15 nt ssDNA],binding result,Type I collagen [1],binds
CAGAGAATCTCCATTTTAGCACTTACCTGTGAC (ssDNA) [random 33 nt ssDNA],binding result,Type I collagen [2],binds
random ssDNA oligomer monovalent 80 nt (ssDNA) DNA: TAATGAGAAGTATGTGTAGAGTCAATGAGATACGCAATTGGGAAGACAAGAGTATTGACTCGGACTGAGTACAATCGTCC,binding result,Type I collagen [3],binds
TCCCGCGAAATTAATACGACAGCACCACTTTTGGAGGGAGATTTC (ssDNA) [random 45 nt ssDNA],binding result,Type I collagen [4],binds
random 90 nt ssDNA (ssDNA) DNA: AATTTAGGAGCTGAAGGTCAGGGCACCAGCAGCCTTTGGAAGCCTACAGGACAACAGTCAGCCTGGCTAGAAAAAAAAACAATGTCACAG,binding result,Type I collagen [5],binds
"scrambled 80 nt aptamer (ssDNA, 5' amino C6 (5AmMC6)) DNA: TAAAACGCGCTTAAGCTGGTGTTACTCGAGCGGTCTTCTATTGAAATAATTTCTGAAGGCACACGACATATGATCTTCAG",binding result,Type I collagen [6],binds
TAAAACGCGCTTAAGCTGGTGTTACTCGAGCGGTCTTCTA (ssDNA) [random ssDNA 40 nt (Sequence R)],binding result,Type I collagen [7],binds
CAGGTGGGCGCGCTGTCGTGGGTGCTCGGGTGCGGTTGGG (ssDNA) [HAP aptamer (Aptamer G)],binding result,Type I collagen [8],binds
CAGGTGCGCGCGCTGTCGTGCGTGCTCGCGTGCGGTTGCG (ssDNA) [Aptamer G-],binding result,Type I collagen [9],binds
CAGGTGGGGGCGCTGTCGTGGGGGCTCGGGGGCGGTGGGG (ssDNA) [Aptamer G+],binding result,Type I collagen [9],binds
VEGF-R2 aptamer monovalent (ssDNA) DNA: GATGTGAGTGTGTGACGAGCTACGACGTCTGGTGTAATTTATAAAGACACTGTGTATATCAACAACAGAACAAGGAAAGG,binding result,Type I collagen [10],binds

# Source: US20230382976, “APTAMER ASSEMBLIES FOR PROTEIN CROSSLINKING” (UNIVERSITY OF FLORIDA RESEARCH FOUNDATION, INC., published 2023)
